# Read-outs that look alike come from different tables or passages of the source.
# T1: human OX40 expressed on CHO cells (human, UniProt P43489 29-277)
# T1 construct: whole, on cells
# T1 sequence (looked up): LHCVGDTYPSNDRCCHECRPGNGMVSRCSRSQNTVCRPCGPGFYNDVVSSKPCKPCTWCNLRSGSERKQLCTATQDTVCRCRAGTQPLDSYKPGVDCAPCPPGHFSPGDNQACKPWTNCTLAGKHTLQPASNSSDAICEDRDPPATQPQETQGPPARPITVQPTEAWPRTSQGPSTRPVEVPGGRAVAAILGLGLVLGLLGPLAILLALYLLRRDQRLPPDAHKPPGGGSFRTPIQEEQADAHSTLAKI
# Tests used:
# [1] = target: T2, human CD137 expressed on cells (human, UniProt Q07011 24-255); test: FACS on CHO cells expressing human CD137 (MFI)
# T2 construct: whole, on cells; also called 4-1BB; TNFRSF9
# Method: (§1) Anti-OX40/CD137 bi-specific antibodies were analyzed by FACS for their binding properties to human OX40 and/or human CD137 expressed on CHO cells. Briefly, cultured cells were harvested, counted and cell viability was evaluated using the Trypan Blue exclusion method. Viable cells were then adjusted to 2×10⁶ cells per mL in PBS containing 2% BSA. 100 μL of this cell suspension were further aliquoted per well into a V-bottom 96-well plate. […] After incubation for 2 hours at 4° C., cells were centrifuged (3 min, 1000×g), washed with 250 μL/well BSA-containing FACS Stain Buffer, resuspended and incubated for an additional 1 hour at 4° C. with 100 μL/well fluorochrome-conjugated anti-IgG antibody for detection of the bisepecific antibody. Cells were then washed with 250 μL/well BSA-containing FACS Stain Buffer, resuspended in 100 μL/well FACS Stain Buffer, acquired and analyzed using a FACS machine. Binding of the bispecific antibodies to human OX40 or human CD137 expressing CHO cells were evaluated and the mean fluorescence intensity is plotted in histograms or dot plots.
# [2] = target: T1, human OX40 expressed on CHO cells; test: FACS on CHO cells expressing human OX40 (MFI)
# Method: as §1
# [3] = target: T2, human CD137 expressed on cells; test: FACS on CHO cells expressing human CD137 (MFI); remark: listed apart in the source
# Method: as §1, with “Anti-GITR/CD137” for “Anti-OX40/CD137”, “GITR” for “OX40”, “1000× g),” for “1000×g),”
# [4] = target: T2, human CD137 expressed on cells; test: FACS on CHO cells expressing human CD137 (MFI); remark: listed apart in the source
# Method: as §1
# T2 sequence (Q07011 24-255): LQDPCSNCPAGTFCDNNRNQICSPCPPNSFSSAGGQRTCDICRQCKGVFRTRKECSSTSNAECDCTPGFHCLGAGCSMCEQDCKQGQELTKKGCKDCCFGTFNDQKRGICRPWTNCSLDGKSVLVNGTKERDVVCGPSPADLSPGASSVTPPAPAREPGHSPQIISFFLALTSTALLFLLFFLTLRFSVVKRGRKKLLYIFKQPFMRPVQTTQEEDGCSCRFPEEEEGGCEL
Binder,EC50 (read off the curve) [1],EC50 (read off the curve) [2],EC50 (read off the curve) [3],EC50 (read off the curve) [4],binding result [2]
"Ly766 (bispecific antibody, human IgG1, kappa, Anti-OX40/CD137: Ly598-derived heavy chain fused to Ly1630 scFv (VL-VH); Ly598 light chain) heavy: EVQLVQSGAEVKKPGASVKVSCKASGYTFTDSYMSWVRQAPGQGLEWIGDMYPDNGDSSYNQKFRERVTITRDTSTSTAYLELSSLRSEDTAVYYCVLAPRWYFSVWGQGTLVTVSSASTKGPSVFPLAPSSKSTSGGTAALGCLVKDYFPEPVTVSWNSGALTSGVHTFPAVLQSSGLYSLSSVVTVPSSSLGTQTYICNVNHKPSNTKVDKKVEPKSCDKTHTCPPCPAPELLGPSVFLFPPKPKDTLMISRTPEVTCVVVDVSHEDPEVKFNWYVDGVEVHNAKTKPREEQYNSTYRVVSVLTVLHQDWLNGKEYKCKVSNKALPAPIEKTISKAKGQPREPQVYTLPPSREEMTKNQVSLTCLVKGFYPSDIAVEWESNGQPENNYKTTPPVLDSDGSFFLYSKLTVDKSRWQQGNVFSCSVMHEALHNHYTQKSLSLSPGGGGGSGGGGSGGGGSGGGGSDIQMTQSPSSLSASVGDRVTITCRASQDIRSNLNWYQQKPGGAVKLLIYYTSRLHSGVPSRFSGSGSGTDYTLTISSLQPEDFATYFCQQSEKLPRTFGGGTKVEIRGGGGSGGGGSGGGGSGGGGSQVQLVQSGAEVKKPGASVKVSCKASGYTFAGFEMHWVRQAPGQGLEWMGAIDPKTGGTDYNQKFKDRVTMTRDTSISTAYMELSRLRSDDTAVYYCARDLGYFDVWGQGTLVTVSS light: not shown",~0.2 µg/mL,~0.4 µg/mL,–,–,–
"Ly756 (bispecific antibody, human IgG1, kappa, Anti-GITR/CD137: Ly1630 heavy chain; Ly1630 light chain fused to TM685 scFv (VL-VH)) heavy: QVQLVQSGAEVKKPGASVKVSCKASGYTFAGFEMHWVRQAPGQGLEWMGAIDPKTGGTDYNQKFKDRVTMTRDTSISTAYMELSRLRSDDTAVYYCARDLGYFDVWGQGTLVTVSSASTKGPSVFPLAPSSKSTSGGTAALGCLVKDYFPEPVTVSWNSGALTSGVHTFPAVLQSSGLYSLSSVVTVPSSSLGTQTYICNVNHKPSNTKVDKKVEPKSCDKTHTCPPCPAPELLGPSVFLFPPKPKDTLMISRTPEVTCVVVDVSHEDPEVKFNWYVDGVEVHNAKTKPREEQYNSTYRVVSVLTVLHQDWLNGKEYKCKVSNKALPAPIEKTISKAKGQPREPQVYTLPPSREEMTKNQVSLTCLVKGFYPSDIAVEWESNGQPENNYKTTPPVLDSDGSFFLYSKLTVDKSRWQQGNVFSCSVMHEALHNHYTQKSLSLSPGK light: DIQMTQSPSSLSASVGDRVTITCRASQDIRSNLNWYQQKPGGAVKLLIYYTSRLHSGVPSRFSGSGSGTDYTLTISSLQPEDFATYFCQQSEKLPRTFGGGTKVEIRRTVAAPSVFIFPPSDEQLKSGTASVVCLLNNFYPREAKVQWKVDNALQSGNSQESVTEQDSKDSTYSLSSTLTLSKADYEKHKVYACEVTHQGLSSPVTKSFNRGECGGGGSGGGGSGGGGSGGGGSEIVLTQSPATLSLSPGERATLSCRASKSVRTGMHWYQQKPGQAPRLLIYGASNLESGIPARFSGSGSGTDFTLTISSLEPEDFAVYYCQQSWNHFTFGQGTKLEIKGGGGSGGGGSGGGGSGGGGSQVQLQESGPGLVKPSETLSLTCTVSGFSLTSYNVHWIRQPPGKGLEWIGVIWSGVRTDYNSVLKPRVTISVDTSKNQFSLKLSSVTAADTAVYYCARGTYDDNYHDVMDAWGQGTLVTVSS",–,–,~0.1 µg/mL,–,–
"Ly765 (bispecific antibody, human IgG1, kappa, Anti-OX40/CD137: Ly1630 heavy chain) heavy: QVQLVQSGAEVKKPGASVKVSCKASGYTFAGFEMHWVRQAPGQGLEWMGAIDPKTGGTDYNQKFKDRVTMTRDTSISTAYMELSRLRSDDTAVYYCARDLGYFDVWGQGTLVTVSSASTKGPSVFPLAPSSKSTSGGTAALGCLVKDYFPEPVTVSWNSGALTSGVHTFPAVLQSSGLYSLSSVVTVPSSSLGTQTYICNVNHKPSNTKVDKKVEPKSCDKTHTCPPCPAPELLGPSVFLFPPKPKDTLMISRTPEVTCVVVDVSHEDPEVKFNWYVDGVEVHNAKTKPREEQYNSTYRVVSVLTVLHQDWLNGKEYKCKVSNKALPAPIEKTISKAKGQPREPQVYTLPPSREEMTKNQVSLTCLVKGFYPSDIAVEWESNGQPENNYKTTPPVLDSDGSFFLYSKLTVDKSRWQQGNVFSCSVMHEALHNHYTQKSLSLSPGK light: DIQMTQSPSSLSASVGDRVTITCRASQDIRSNLNWYQQKPGGAVKLLIYYTSRLHSGVPSRFSGSGSGTDYTLTISSLQPEDFATYFCQQSEKLPRTFGGGTKVEIRRTVAAPSVFIFPPSDEQLKSGTASVVCLLNNFYPREAKVQWKVDNALQSGNSQESVTEQDSKDSTYSLSSTLTLSKADYEKHKVYACEVTHQGLSSPVTKSFNRGECGGGGSGGGGSGGGGSGGGGSEVQLVQSGAEVKKPGASVKVSCKASGYTFTDSYMSWVRQAPGQGLEWIGDMYPDNGDSSYNQKFRERVTITRDTSTSTAYLELSSLRSEDTAVYYCVLAPRWYFSVWGQGTLVTVSSGGGGSGGGGSGGGGSGGGGSDIQMTQSPSSLSASVGDRVTITCRASQDISNYLNWYQQKPGKAPKLLIYYTSRLRSGVPSRFSGSGSGTDFTLTISSLQPEDFATYYCQQGHTLPPTFGQGTKVEIK",–,–,–,~0.2 µg/mL,binds

# More lines, now with the values ahead:
EC50 (read off the curve) [1],EC50 (read off the curve) [2],EC50 (read off the curve) [3],EC50 (read off the curve) [4],binding result [2],Binder
~0.3 µg/mL,–,–,–,binds,"Ly768 (bispecific antibody, human IgG1, kappa, Anti-OX40/CD137: Ly598-derived heavy chain) heavy: EVQLVQSGAEVKKPGASVKVSCKASGYTFTDSYMSWVRQAPGQGLEWIGDMYPDNGDSSYNQKFRERVTITRDTSTSTAYLELSSLRSEDTAVYYCVLAPRWYFSVWGQGTLVTVSSASTKGPSVFPLAPSSKSTSGGTAALGCLVKDYFPEPVTVSWNSGALTSGVHTFPAVLQSSGLYSLSSVVTVPSSSLGTQTYICNVNHKPSNTKVDKKVEPKSCDKTHTCPPCPAPELLGPSVFLFPPKPKDTLMISRTPEVTCVVVDVSHEDPEVKFNWYVDGVEVHNAKTKPREEQYNSTYRVVSVLTVLHQDWLNGKEYKCKVSNKALPAPIEKTISKAKGQPREPQVYTLPPSREEMTKNQVSLTCLVKGFYPSDIAVEWESNGQPENNYKTTPPVLDSDGSFFLYSKLTVDKSRWQQGNVFSCSVMHEALHNHYTQKSLSLSPGK light: not shown"
~0.6 µg/mL,–,–,–,binds,"Ly769 (bispecific antibody, human IgG1, kappa, Anti-OX40/CD137: Ly598-derived heavy chain) heavy: EVQLVQSGAEVKKPGASVKVSCKASGYTFTDSYMSWVRQAPGQGLEWIGDMYPDNGDSSYNQKFRERVTITRDTSTSTAYLELSSLRSEDTAVYYCVLAPRWYFSVWGQGTLVTVSSASTKGPSVFPLAPSSKSTSGGTAALGCLVKDYFPEPVTVSWNSGALTSGVHTFPAVLQSSGLYSLSSVVTVPSSSLGTQTYICNVNHKPSNTKVDKKVEPKSCDKTHTCPPCPAPELLGPSVFLFPPKPKDTLMISRTPEVTCVVVDVSHEDPEVKFNWYVDGVEVHNAKTKPREEQYNSTYRVVSVLTVLHQDWLNGKEYKCKVSNKALPAPIEKTISKAKGQPREPQVYTLPPSREEMTKNQVSLTCLVKGFYPSDIAVEWESNGQPENNYKTTPPVLDSDGSFFLYSKLTVDKSRWQQGNVFSCSVMHEALHNHYTQKSLSLSPGK light: not shown"
~0.3 µg/mL,~0.4 µg/mL,–,–,–,"Ly767 (bispecific antibody, human IgG1, kappa, Anti-OX40/CD137: Ly598-derived heavy chain fused to Ly1630 scFv (VH-VL); Ly598 light chain) heavy: EVQLVQSGAEVKKPGASVKVSCKASGYTFTDSYMSWVRQAPGQGLEWIGDMYPDNGDSSYNQKFRERVTITRDTSTSTAYLELSSLRSEDTAVYYCVLAPRWYFSVWGQGTLVTVSSASTKGPSVFPLAPSSKSTSGGTAALGCLVKDYFPEPVTVSWNSGALTSGVHTFPAVLQSSGLYSLSSVVTVPSSSLGTQTYICNVNHKPSNTKVDKKVEPKSCDKTHTCPPCPAPELLGPSVFLFPPKPKDTLMISRTPEVTCVVVDVSHEDPEVKFNWYVDGVEVHNAKTKPREEQYNSTYRVVSVLTVLHQDWLNGKEYKCKVSNKALPAPIEKTISKAKGQPREPQVYTLPPSREEMTKNQVSLTCLVKGFYPSDIAVEWESNGQPENNYKTTPPVLDSDGSFFLYSKLTVDKSRWQQGNVFSCSVMHEALHNHYTQKSLSLSPGGGGGSGGGGSGGGGSGGGGSQVQLVQSGAEVKKPGASVKVSCKASGYTFAGFEMHWVRQAPGQGLEWMGAIDPKTGGTDYNQKFKDRVTMTRDTSISTAYMELSRLRSDDTAVYYCARDLGYFDVWGQGTLVTVSSGGGGSGGGGSGGGGSGGGGSDIQMTQSPSSLSASVGDRVTITCRASQDIRSNLNWYQQKPGGAVKLLIYYTSRLHSGVPSRFSGSGSGTDYTLTISSLQPEDFATYFCQQSEKLPRTFGGGTKVEIR light: not shown"
